Results reported in patent US20260242478A1 (published 2026).
Where no end group is shown, it is not given here.

How the values were obtained:
PSMA Fab [1] = molecular target: T1, PSMA Fab; assay: phage ELISA; biotinylated PSMA Fab on neutravidin plate, clonal phage supernatant, anti-M13 HRP; wells pre-incubated with PSMA antigen as competitor
T1 construct: Biotinylated and captured on neutravidin coated plates in the phage ELISA; also called 006 PSMA Fab; Anti-PSMA Fab
Method: (§1) Clonal phage were harvested as crude supernatants and screened via standard ELISAs. […] Prior to the addition of clonal phage. wells were incubated with blocking buffer and PSMA antigen or blocking buffer alone. Without washing or aspirating, clonal phage supernatants were then added to the wells and incubated for a short time. Wells were then washed followed by detection of bound phage using a horse radish conjugated anti-M13 antibody.

PSMA Fab [2] = molecular target: T1, PSMA Fab; assay: phage ELISA; biotinylated PSMA Fab on neutravidin plate, clonal phage supernatant, anti-M13 HRP; no PSMA antigen
Method: as §1

PSMA Fab [3] = molecular target: T2, PSMA Fab; assay: clonal phage ELISA on biotinylated PSMA Fab captured on neutravidin, anti-M13 HRP detection;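 further: crude clonal phage supernatants added to wells pretreated with PSMA antigen in blocking buffer or with blocking buffer only, then briefly incubated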
T2 construct: also called Anti-PSMA Fab; 006 PSMA Fab
Method: as §1

PSMA Fab [4] = molecular target: T2, PSMA Fab; assay: clonal phage ELISA on captured PSMA Fab pre-incubated with PSMA antigen (competitor: PSMA)
Method: as §1

PSMA Fab [5] = molecular target: T3, PSMA Fab (biotinylated (site not stated)); assay: clonal phage ELISA; biotinylated PSMA Fab on neutravidin plate pre-incubated with PSMA antigen as competitor; anti-M13 HRP detection;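 further: crude clonal phage supernatants briefly incubated on wells preloaded with PSMA antigen in blocking buffer, or buffer only as control, bound phage detected with HRP-conjugated anti-M13 antibody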
T3 construct: Biotinylated PSMA Fab captured on neutravidin plates in the phage ELISA; also called Anti-PSMA Fab; 006 PSMA Fab

PSMA Fab [6] = molecular target: T3, PSMA Fab; assay: clonal phage ELISA; biotinylated PSMA Fab on neutravidin plate; anti-M13 HRP detection; blocking buffer alone
Method: as §1

B1: Phage-2433 (peptide)
peptide: GDNWCKPAWMCRDM
notes: Peptide-180 library clone, tested as clonal phage (peptide fused to pIII)
- phage binding ELISA signal (PSMA Fab [1]): 0.0728
- phage binding ELISA signal (PSMA Fab [2]): 1.32

B2: Phage-2357 (peptide)
peptide: AERWCIPSWMCELA
notes: Peptide-180 library clone, tested as clonal phage supernatant (peptide fused to the pIII filament of the bacteriophage)
- Phage binding ELISA signal, Anti-PSMA Fab (PSMA Fab [3]): 1.42
- Phage binding ELISA signal, Anti-PSMA Fab with PSMA antigen (PSMA Fab [4]): 0.0756

B3: Phage-2434 (peptide)
peptide: EERWCIPEWMCSRI
notes: as for B1
- phage binding ELISA signal (PSMA Fab [1]): 0.0557
- phage binding ELISA signal (PSMA Fab [2]): 1.32

B4: Phage-2347 (peptide)
peptide: SENWCIPNWMCSGL
notes: as for B2
- Phage binding ELISA signal, Anti-PSMA Fab (PSMA Fab [3]): 1.43
- Phage binding ELISA signal, Anti-PSMA Fab with PSMA antigen (PSMA Fab [4]): 0.0725

B5: Phage-2429 (peptide)
peptide: GEKWCIPEWMCVTT
notes: as for B1
- phage binding ELISA signal (PSMA Fab [1]): 0.0637
- phage binding ELISA signal (PSMA Fab [2]): 1.32

B6: Phage-2426 (peptide)
peptide: LWMSCIPPWMCANV
modifications: cysteine pairing not given here; also: displayed as fusion to phage pIII
notes: as for B1
- phage binding ELISA signal (PSMA Fab [1]): 0.137
- phage binding ELISA signal (PSMA Fab [2]): 1.33

B7: Phage-2421 (peptide)
peptide: EFKWCIPKWMCMVD
notes: as for B1
- phage binding ELISA signal (PSMA Fab [1]): 0.0948
- phage binding ELISA signal (PSMA Fab [2]): 1.33

B8: Phage-2431 (peptide)
peptide: VLKWCTPPWMCWDI
notes: as for B1
- phage binding ELISA signal (PSMA Fab [1]): 0.123
- phage binding ELISA signal (PSMA Fab [2]): 1.32

B9: Phage-2350 (peptide)
peptide: MDRWCIPEWMCARH
modifications: cysteine pairing not given here; also: displayed on bacteriophage by fusion to pIII
notes: as for B2
- Phage binding ELISA signal, Anti-PSMA Fab (PSMA Fab [3]): 1.43
- Phage binding ELISA signal, Anti-PSMA Fab with PSMA antigen (PSMA Fab [4]): 0.0537

Binder: LHKLCTPTWMCEGF [Phage-2442]
- Phage binding ELISA signal, Anti-PSMA Fab in presence of PSMA (PSMA Fab [5]): 0.0712
- Phage binding ELISA signal, Anti-PSMA Fab (PSMA Fab [6]): 1.3

B10: Phage-2432 (peptide)
peptide: EVKWCIPNWMCAAS
modifications: cysteine pairing not given here; also: displayed as fusion to phage pIII
notes: as for B1
- phage binding ELISA signal (PSMA Fab [1]): 0.077
- phage binding ELISA signal (PSMA Fab [2]): 1.32

Binder: VVHWCTPAWMCYDM [Phage-2441]
- Phage binding ELISA signal, Anti-PSMA Fab in presence of PSMA (PSMA Fab [5]): 0.0623
- Phage binding ELISA signal, Anti-PSMA Fab (PSMA Fab [6]): 1.3

B11: Phage-2353 (peptide)
peptide: SEEWCIPPWMCLGR
notes: as for B2
- Phage binding ELISA signal, Anti-PSMA Fab (PSMA Fab [3]): 1.43
- Phage binding ELISA signal, Anti-PSMA Fab with PSMA antigen (PSMA Fab [4]): 0.0756

Binder: PAKWCVPSWMCSEI [Phage-2440]
- Phage binding ELISA signal, Anti-PSMA Fab in presence of PSMA (PSMA Fab [5]): 0.0676
- Phage binding ELISA signal, Anti-PSMA Fab (PSMA Fab [6]): 1.31

B12: Phage-2349 (peptide)
peptide: LSNWCVPLWMCEMV
notes: as for B2
- Phage binding ELISA signal, Anti-PSMA Fab (PSMA Fab [3]): 1.43
- Phage binding ELISA signal, Anti-PSMA Fab with PSMA antigen (PSMA Fab [4]): 0.0796

B13: Phage-2424 (peptide)
peptide: LVNWCTPPWMCWHD
notes: as for B1
- phage binding ELISA signal (PSMA Fab [1]): 0.0827
- phage binding ELISA signal (PSMA Fab [2]): 1.33

B14: Phage-2355 (peptide)
peptide: FENWCTPSWMCSGF
notes: as for B2
- Phage binding ELISA signal, Anti-PSMA Fab (PSMA Fab [3]): 1.42
- Phage binding ELISA signal, Anti-PSMA Fab with PSMA antigen (PSMA Fab [4]): 0.0807

B15: Phage-2427 (peptide)
peptide: EYKWCVPIWMCAYD
modifications: cysteine pairing not given here; also: displayed as fusion to phage pIII
notes: as for B1
- phage binding ELISA signal (PSMA Fab [1]): 0.0826
- phage binding ELISA signal (PSMA Fab [2]): 1.33

Binder: EMNWCIPAWMCEGR [Phage-2437]
- Phage binding ELISA signal, Anti-PSMA Fab in presence of PSMA (PSMA Fab [5]): 0.0633
- Phage binding ELISA signal, Anti-PSMA Fab (PSMA Fab [6]): 1.31

B16: Phage-2358 (peptide)
peptide: PVKWCVPPWMCAAT
modifications: cysteine pairing not given here; also: displayed on bacteriophage by fusion to pIII
notes: as for B2
- Phage binding ELISA signal, Anti-PSMA Fab (PSMA Fab [3]): 1.42
- Phage binding ELISA signal, Anti-PSMA Fab with PSMA antigen (PSMA Fab [4]): 0.0663

Binder: MPKWCTPSWMCAVQ (cysteine pairing not given here; also: displayed as fusion to phage pIII) [Phage-2439]
- Phage binding ELISA signal, Anti-PSMA Fab in presence of PSMA (PSMA Fab [5]): 0.0845
- Phage binding ELISA signal, Anti-PSMA Fab (PSMA Fab [6]): 1.31

Binder: MPKWCTPSWMCSPS [Phage-2436]
- Phage binding ELISA signal, Anti-PSMA Fab in presence of PSMA (PSMA Fab [5]): 0.0576
- Phage binding ELISA signal, Anti-PSMA Fab (PSMA Fab [6]): 1.31

B17: Phage-2435 (peptide)
peptide: GINWCTPSWMCTGF
notes: as for B1
- phage binding ELISA signal (PSMA Fab [1]): 0.0711
- phage binding ELISA signal (PSMA Fab [2]): 1.31

B18: Phage-2354 (peptide)
peptide: NDHWCIPPWMCAPY
modifications: cysteine pairing not given here; also: displayed on bacteriophage by fusion to pIII
notes: as for B2
- Phage binding ELISA signal, Anti-PSMA Fab (PSMA Fab [3]): 1.42
- Phage binding ELISA signal, Anti-PSMA Fab with PSMA antigen (PSMA Fab [4]): 0.0707

B19: Phage-2351 (peptide)
peptide: PMKWCIPEWMCIAS
notes: as for B2
- Phage binding ELISA signal, Anti-PSMA Fab (PSMA Fab [3]): 1.43
- Phage binding ELISA signal, Anti-PSMA Fab with PSMA antigen (PSMA Fab [4]): 0.102

B20: Phage-2423 (peptide)
peptide: LTNWCTPQWMCLGF
notes: as for B1
- phage binding ELISA signal (PSMA Fab [1]): 0.0731
- phage binding ELISA signal (PSMA Fab [2]): 1.33

B21: Phage-2348 (peptide)
peptide: MEKWCTPSWMCQWM
notes: as for B2
- Phage binding ELISA signal, Anti-PSMA Fab (PSMA Fab [3]): 1.43
- Phage binding ELISA signal, Anti-PSMA Fab with PSMA antigen (PSMA Fab [4]): 0.0828

B22: Phage-2356 (peptide)
peptide: VPKWCTPTWMCIHM
notes: as for B2
- Phage binding ELISA signal, Anti-PSMA Fab (PSMA Fab [3]): 1.42
- Phage binding ELISA signal, Anti-PSMA Fab with PSMA antigen (PSMA Fab [4]): 0.0649

B23: Phage-2352 (peptide)
peptide: IDHWCTPAWMCRGF
notes: as for B2
- Phage binding ELISA signal, Anti-PSMA Fab (PSMA Fab [3]): 1.43
- Phage binding ELISA signal, Anti-PSMA Fab with PSMA antigen (PSMA Fab [4]): 0.0775

B24: Phage-2425 (peptide)
peptide: DENWCKPLWMCEGF
notes: as for B1
- phage binding ELISA signal (PSMA Fab [1]): 0.0991
- phage binding ELISA signal (PSMA Fab [2]): 1.33

Binder: EAKWCIPNWMCEMA [Phage-2438]
- Phage binding ELISA signal, Anti-PSMA Fab in presence of PSMA (PSMA Fab [5]): 0.0622
- Phage binding ELISA signal, Anti-PSMA Fab (PSMA Fab [6]): 1.31

B25: Phage-2428 (peptide)
peptide: ADRLCIPPWMCEMK
notes: as for B1
- phage binding ELISA signal (PSMA Fab [1]): 0.0685
- phage binding ELISA signal (PSMA Fab [2]): 1.33

B26: Phage-2430 (peptide)
peptide: EIKWCTPPWMCTIG
notes: as for B1
- phage binding ELISA signal (PSMA Fab [1]): 0.102
- phage binding ELISA signal (PSMA Fab [2]): 1.32

B27: Phage-2422 (peptide)
peptide: WTNTCIPMWMCEGF
notes: as for B1
- phage binding ELISA signal (PSMA Fab [1]): 0.0808
- phage binding ELISA signal (PSMA Fab [2]): 1.33
